We go through three molecules from paper PMC12756933, “Evidence for biomolecular condensates formed by the Escherichia coli MatP protein in spatiotemporal regulation of the bacterial cell division cycle” (International journal of biological macromolecules, 2025).

Sequences and labels used below:
B1: FtsZ (natural protein, E. coli, UniProt P0A9A6 1-383, looked up)
chain: MFEPMELTNDAVIKVIGVGGGGGNAVEHMVRERIEGVEFFAVNTDAQALRKTAVGQTIQIGSGITKGLGAGANPEVGRNAADEDRDALRAALEGADMVFIAAGMGGGTGTGAAPVVAEVAKDLGILTVAVVTKPFNFEGKKRMAFAEQGITELSKHVDSLITIPNDKLLKVLGRGISLLDAFGAANDVLKGAVQGIAELITRPGLMNVDFADVRTVMSEMGYAMMGSGVASGEDRAEEAAEMAISSPLLEDIDLSGARGVLVNITAGFDLRLDEFETVGNTIRAFASDNATVVIGTSLDPDMNDELRVTVVATGIGMDKRPEITLVTNKQVQQPVMDRYQQHGMAPLTQEQKPVAKVVNDNAPQTAKEPDYLDIPAFLRKQAD
modifications: Alexa Fluor 488 or Alexa Fluor 647 at amino groups, on the tracer fraction only (<1 mol of dye per mole of protein)
notes: FtsZ, E. coli; Oligomers of variable size without GTP, polymers with GTP; also called FtsZ-Alexa 488; FtsZ-Alexa 647

Several values for one entry are separate records, joined by “and”; a condition that tells them apart may be missing. Equal entries are not always repeated.

Series [1] concerns the molecule itself. Description: AUC; sedimentation velocity, dilute solution buffer with 100 mM KCl, GTP and GTP regeneration system, Rayleigh interference; FtsZ polymers with or without MatP.
Series [2] has as its target T1, FtsZ (E. coli, UniProt P0A9A6 1-383).
T1 construct: FtsZ, Escherichia coli cell division protein; oligomers of variable size without GTP, polymers with GTP; also called FtsZ-GTP; GTP-triggered FtsZ polymers
T1 sequence (looked up): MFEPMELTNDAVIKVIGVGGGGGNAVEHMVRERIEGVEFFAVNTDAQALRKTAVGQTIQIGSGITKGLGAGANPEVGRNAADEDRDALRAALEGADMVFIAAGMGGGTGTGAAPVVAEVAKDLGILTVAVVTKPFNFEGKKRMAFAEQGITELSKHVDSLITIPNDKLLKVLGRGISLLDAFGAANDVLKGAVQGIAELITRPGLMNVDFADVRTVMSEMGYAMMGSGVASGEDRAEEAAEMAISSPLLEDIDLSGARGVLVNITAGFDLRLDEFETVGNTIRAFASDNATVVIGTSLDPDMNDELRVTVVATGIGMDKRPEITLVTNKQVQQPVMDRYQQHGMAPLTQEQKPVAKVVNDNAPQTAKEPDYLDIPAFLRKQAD
Description: AUC; multi-signal sedimentation velocity (MSSV), 20 uM FtsZ and 7 uM MatP, absorbance at 250 and 280 nm, 48,000 rpm; dilute solution buffer (50 mM Tris-HCl pH 7.5, 5 mM MgCl2) with 100 mM KCl, no GTP. The following applies: both partners purified.

Series [3] deals with the molecule itself. Description: fluorescence correlation spectroscopy; dilute solution buffer: 50 mM Tris-HCl pH 7.5, 5 mM MgCl2, 100 mM KCl, 0.05 g/L BSA; 10 uM MatP with 10 nM MatP-Alexa 488 as tracer, alone or with 20 uM unlabelled FtsZ, no GTP; at 300 mM KCl the profiles of MatP and FtsZ/MatP overlapped.
The target in series [4] is B1. Put plainly: fluorescence polarisation; anisotropy titration of MatP (50 nM MatP-Alexa 488, 96 nM total MatP) with unlabelled FtsZ; 50 mM Tris-HCl pH 7.5, 5 mM MgCl2, 100 mM KCl; simple 1:1 model, apparent Kd = FtsZ concentration at half of the maximum signal. The following applies: both partners purified.

As to B1, in series [1], the binding result is “binds”.

B2: MatP (natural protein, E. coli, UniProt P0A8N0 1-150, looked up)
chain: MKYQQLENLESGWKWKYLVKKHREGELITRYIEASAAQEAVDVLLSLENEPVLVNGWIDKHMNPELVNRMKQTIRARRKRHFNAEHQHTRKKSIDLEFIVWQRLAGLAQRRGKTLSETIVQLIEDAENKEKYANKMSSLKQDLQALLGKE
notes: MatP, Escherichia coli, untagged; sediments as a dimer (2.5 S); also called Ter macrodomain organizer MatP; MatP-Alexa 488 (labelled tracer)
For B2, the binding result with FtsZ [2] is recorded as “binds”.

B3: MatP (natural protein, E. coli, UniProt P0A8N0 1-150, looked up)
chain: MKYQQLENLESGWKWKYLVKKHREGELITRYIEASAAQEAVDVLLSLENEPVLVNGWIDKHMNPELVNRMKQTIRARRKRHFNAEHQHTRKKSIDLEFIVWQRLAGLAQRRGKTLSETIVQLIEDAENKEKYANKMSSLKQDLQALLGKE
modifications: Alexa Fluor 488 or Alexa Fluor 647 at amino groups, on the tracer fraction only (<1 mol of dye per mole of protein)
notes: MatP, E. coli, untagged; Labelled MatP was used as a tracer mixed with unlabelled MatP; Sediments as a dimer (2.5 S); also called Ter macrodomain organizer MatP; MatP-Alexa 488
For the molecule B3, the “stoichiometry N” value in series [3] amounted to 2. The Kd with FtsZ [4] is 8 µM and 18 µM.
